Changes are numbered by the printed parent chain. Names and notes keep the numbering of the source.
B1: hGPC3-1 HCLB (antibody, V domains shown)
VH: EVQLVQSGAEVKKPGATVKISCKASGYTFTDYEMHWVQQAPGKGLEWIGGIDPETGGTAYNQKFKGRATLTADKSTDTAYMELSSLRSEDTAVYYCGRYYSFAYWGQGTLVTVSS
VL: DVVMTQSPLSLPVTLGQPASISCRSSQSIVHSNGNTYLQWFQQRPGQSPRLLIYKVSNRFSGVPDRFSGSGSGTDFTLKISRVEAEDVGVYYCFQVSHVPYTFGQGTKLEIK
notes: Kabat positions
B2: hGPC3-1 HALC (antibody, V domains shown)
VH: B1 VH with E1Q, T17S, I20V, Q38R, K43Q, K74T, D77S, S84R, E89D, G97A
VL: B1 VL with R50K, E110V, I111M
notes: Kabat positions
B3: hGPC3-1 HALB (antibody, V domains shown)
VH: B1 VH with E1Q, T17S, I20V, Q38R, K43Q, K74T, D77S, S84R, E89D, G97A
VL: B1 VL
notes: Kabat position
B4: hGPC3-1 HBLC (antibody, V domains shown)
VH: B1 VH with A24V, I48M, A68V
VL: B1 VL with R50K, E110V, I111M
notes: Kabat positions
B5: hGPC3-1 HDLA (antibody, V domains shown)
VH: B1 VH with Q38K, R67K
VL: B1 VL with L51R
notes: Kabat positions
B6: hGPC3-1 HDLC (antibody, V domains shown)
VH: B1 VH with Q38K, R67K
VL: B1 VL with R50K, E110V, I111M
notes: Kabat positions
B7: hGPC3-1 HCLC (antibody, V domains shown)
VH: B1 VH
VL: B1 VL with R50K, E110V, I111M
notes: Kabat positions
B8: hGPC3-1 HBLA (antibody, V domains shown)
VH: B1 VH with A24V, I48M, A68V
VL: B1 VL with L51R
notes: Kabat positions
B9: hGPC3-1 HCLA (antibody, V domains shown)
VH: B1 VH
VL: B1 VL with L51R
notes: Kabat positions
B10: hGPC3-1 HDLB (antibody, V domains shown)
VH: B1 VH with Q38K, R67K
VL: B1 VL
notes: Kabat positions
B11: hGPC3-1 HBLB (antibody, V domains shown)
VH: B1 VH with A24V, I48M, A68V
VL: B1 VL
notes: Kabat position
B12: murine GPC3-1 antibody (antibody, V domains shown)
VH: QVQLQQSGAELVRPGASVTLSCKASGYTFTDYEMHWVKQTPVHGLEWIGGIDPETGGTAYNQKFKGKATLTADKSSSTAYMDLRSLTSEDSAVYYCGRYYSFAYWGQGTLVTVSA
VL: DVLMTQTPLSLPLSLGDQASISCRSSQSIVHSNGNTYLQWFLQKPGQSPKLLIYKVSNRFSGVPDRFSGSGSGTDFTLKIGRVEAEDLGVYYCFQVSHVPYTFGGGTKLVMK
notes: Murine hybridoma IgG; also called mGPC3-1
B13: hGPC3-1ec (HBLE) (antibody, V domains shown)
VH: B1 VH with A24V, I48M, A68V
VL: B1 VL with G34A
notes: HBLE variable regions on IgG1 with a cysteine substitution at position 239 of the heavy chain (S239C, EU index); 'ec' marks this; Tested unconjugated; also called humanized GPC3-1ec
B14: hGPC3-1 HBLD (antibody, V domains shown)
VH: B1 VH with A24V, I48M, A68V
VL: B1 VL with N33D
notes: Kabat positions
B15: hGPC3-1 HBLE (antibody, V domains shown)
VH: B1 VH with A24V, I48M, A68V
VL: B1 VL with G34A
notes: Only variable regions are tied to the antibody; also called lead humanized GPC3-1 antibody
B16: hGPC3-1 HBLB-V (antibody, V domains shown)
VH: B1 VH with A24V, I48M, A68V
VL: B1 VL with G34V
notes: Kabat position
B17: hGPC3-1 HBLB-Q (antibody, V domains shown)
VH: B1 VH with A24V, I48M, A68V
VL: B1 VL with N33Q
notes: Kabat positions

biological target: T1, human Glypican 3 (GPC3) on GPC3-positive cells (human, UniProt P51654 25-554); assay: competition with AlexaFluor-488 labeled mGPC3-1 on GPC3-positive cells, flow cytometry
T1 construct: whole, on cells; the methods say only 'GPC3-positive cells'; also called hGPC3
Description: (§1) Cells were centrifuged, washed 3 times with PBS, and resuspended in 125 μL of a PBS+2% FBS solution. […] The EC50 was extrapolated by fitting the data to a sigmoidal dose-response curve with variable slope.

T1 sequence (P51654 25-554 limits assumed): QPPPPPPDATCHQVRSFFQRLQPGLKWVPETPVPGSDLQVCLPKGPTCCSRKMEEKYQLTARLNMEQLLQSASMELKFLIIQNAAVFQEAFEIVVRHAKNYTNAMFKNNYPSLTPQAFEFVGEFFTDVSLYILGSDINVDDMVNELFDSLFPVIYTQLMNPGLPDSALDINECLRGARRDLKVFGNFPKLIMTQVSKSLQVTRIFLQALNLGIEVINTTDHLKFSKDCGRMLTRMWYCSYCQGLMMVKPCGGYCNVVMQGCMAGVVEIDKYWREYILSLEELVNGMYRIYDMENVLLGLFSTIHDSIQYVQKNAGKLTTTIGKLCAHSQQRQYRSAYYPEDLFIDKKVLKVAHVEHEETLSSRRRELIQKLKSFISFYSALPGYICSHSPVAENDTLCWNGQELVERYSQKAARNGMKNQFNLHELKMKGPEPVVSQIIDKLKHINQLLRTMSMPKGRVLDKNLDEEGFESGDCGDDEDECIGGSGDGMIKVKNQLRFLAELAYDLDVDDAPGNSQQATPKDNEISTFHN

Q: For B1, which EC50 is on record?
A: Its EC50 is 18 nM.

Q: How did the EC50 turn out when B2 was run?
A: The EC50 was 63 nM.

Q: With B3 as the binder, how does the EC50 read?
A: The EC50 was 91 nM.

Q: B4 was tested. Which EC50 did it give?
A: The EC50 was 25 nM.

Q: Which EC50 does the source give for B5 here?
A: The EC50 was 149 nM.

Q: How did the EC50 turn out when B6 was run?
A: Its EC50 is 13 nM.

Q: For B7, which EC50 is on record?
A: The EC50 was 19 nM.

Q: How did the EC50 turn out when B8 was run?
A: The EC50 was 203 nM.

Q: For B9, which EC50 is on record?
A: Its EC50 is 76 nM.

Q: How did the EC50 turn out when B10 was run?
A: Its EC50 is 10 nM.

Q: With B11 as the binder, how does the EC50 read?
A: The EC50 was 14 nM.

Q: How did the EC50 turn out when B12 was run?
A: The EC50 was 9 nM.

biological target: T2, Human GPC3 (hGPC3 GP3-H5258, AcroBiosystems), biotinylated (human, UniProt P51654 25-559, biotinylated with Pierce NHS-LC-LC-Biotin at 1.5:1 biotin/protein ratio); assay: BLI (Octet Red 384), biotinylated hGPC3 on SAX biosensors, hGPC3-1ec as analyte, bivalent binding, 1:1 fit, association 600 sec; bivalent binding, kinetic 1:1 fit, association of 600 sec
T2 construct: Bought protein; also called immobilized hGPC3
Description: (§2) Human GPC3 (hGPC3 GP3-H5258) was purchased from AcroBiosystems and biotinylated using Pierce NHS-LC-LC-Biotin at a molar ratio of 1.5:1 biotin/protein ratio. Biolayer interferometry (BLI) was performed on an Octet Red 384 system (ForteBio) with High Precision Streptavidin (SAX) Biosensors and GPC3 as the probe using hGPC3-1ec as the analyte.

T2 sequence (P51654 25-559 limits assumed): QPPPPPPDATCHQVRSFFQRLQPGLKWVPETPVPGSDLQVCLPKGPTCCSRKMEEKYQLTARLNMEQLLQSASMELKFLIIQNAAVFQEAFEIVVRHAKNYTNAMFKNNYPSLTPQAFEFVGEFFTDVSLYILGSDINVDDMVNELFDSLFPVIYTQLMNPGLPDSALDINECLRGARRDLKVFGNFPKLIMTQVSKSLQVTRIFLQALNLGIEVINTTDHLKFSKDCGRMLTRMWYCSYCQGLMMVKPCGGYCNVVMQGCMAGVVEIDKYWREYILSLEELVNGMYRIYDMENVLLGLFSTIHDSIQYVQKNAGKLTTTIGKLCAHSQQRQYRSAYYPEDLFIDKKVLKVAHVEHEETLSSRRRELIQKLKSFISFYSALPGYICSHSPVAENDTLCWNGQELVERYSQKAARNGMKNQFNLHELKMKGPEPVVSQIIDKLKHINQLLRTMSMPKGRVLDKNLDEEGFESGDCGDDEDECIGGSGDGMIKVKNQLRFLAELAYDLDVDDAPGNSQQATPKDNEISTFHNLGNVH

Q: B13 was tested. Which kon did it give?
A: Its kon is 113000 M⁻¹ s⁻¹.

biological target: T2, Human GPC3 (hGPC3 GP3-H5258, …); assay: BLI (Octet Red 384), biotinylated hGPC3 on SAX biosensors, hGPC3-1ec as analyte, bivalent binding, 1:1 fit; bivalent binding, kinetic 1:1 fit (kdiss/kon)
Description: as §2

Q: Which Kd does the source give for B13 here?
A: Its Kd is 0.204 nM.

biological target: T1, human Glypican 3 (GPC3) on …; assay: competition with AlexaFluor-488 labeled mGPC3-1 on GPC3-positive cells, flow cytometry; remark: another data set of the same source
Description: as §1

Q: Which EC50 does the source give for B14 here?
A: Its EC50 is 74 nM.

Q: With B15 as the binder, how does the EC50 read?
A: The EC50 was 3 nM.

Q: B16 was tested. Which EC50 did it give?
A: Its EC50 is 4 nM.

Q: For B17, which EC50 is on record?
A: The EC50 was 7 nM.

Q: How did the EC50 turn out when B11 was run?
A: The EC50 was 3 nM.

biological target: T2, Human GPC3 (hGPC3 GP3-H5258, …); assay: BLI (Octet Red 384), biotinylated hGPC3 on SAX biosensors, hGPC3-1ec as analyte, bivalent binding, 1:1 fit, dissociation 1800 sec; bivalent binding, kinetic 1:1 fit, disassociation of 1800 sec
Description: as §2

Q: B13 was tested. Which koff did it give?
A: Its koff is 2.3e-05 s⁻¹.

biological target: T2, Human GPC3 (hGPC3 GP3-H5258, …); assay: BLI/SPR steady state: 600 second maximum response against concentration, half maximal binding (FIG. 6); binding affinity from FIG. 6, not the bivalent kinetic fit
Description: (Left) Multiple sensorgrams represent several concentrations (400, 160, 64, 25.6, 10.2, 4.1, and 1.64 nM) of hGPC3-1ec associating with immobilized hGPC3. (Right) The KD was determined by plotting the 600 second maximum response for each concentration and was defined by half maximal binding.
as §2

Q: B13 was tested. Which Kd did it give?
A: Its Kd is 14 nM.
